Here are results for 97 substances from patent US20250011363A1, “OPTIMIZED SHORTENED PEPTIDE THAT BINDS TO ACETYLCHOLINE RECEPTOR, AND USE THEREOF” (SKINMED CO., LTD., priority 2021, published 2025).

The target of the experiment is acetylcholine receptor (Homo sapiens, UniProt P02708). The experiment in a line: SPR binding affinity (RU) of optimized 5mer/6mer/7mer peptides, Examples 6-7. An outline of the steps: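 Using surface plasmon resonance, binding to the acetylcholine receptor was measured for each sequence at a single 10 μM concentration. Values are response units.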
For orientation: SPR reads the build-up and loss of mass on a sensor chip optically.

[1] abbreviates: 6mer-1 Top sequence; SPR; peptides tested at 10 μM.
[2] abbreviates: SPR, peptides tested at 10 μM; 6mer-1 Top sequence.

Sequence of acetylcholine receptor (P02708 21-457): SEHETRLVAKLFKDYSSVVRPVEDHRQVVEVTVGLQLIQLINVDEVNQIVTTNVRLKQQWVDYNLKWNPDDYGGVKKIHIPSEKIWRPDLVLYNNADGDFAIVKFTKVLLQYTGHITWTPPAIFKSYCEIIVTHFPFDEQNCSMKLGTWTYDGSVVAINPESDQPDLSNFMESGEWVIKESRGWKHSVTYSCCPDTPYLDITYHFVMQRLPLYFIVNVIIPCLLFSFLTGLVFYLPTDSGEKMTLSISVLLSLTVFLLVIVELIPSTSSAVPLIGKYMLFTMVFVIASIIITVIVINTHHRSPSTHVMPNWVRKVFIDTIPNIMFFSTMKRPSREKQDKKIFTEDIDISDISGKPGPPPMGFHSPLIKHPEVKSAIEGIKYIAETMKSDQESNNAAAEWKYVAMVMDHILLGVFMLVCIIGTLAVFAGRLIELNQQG

Consider 6mer-1-328 (KRWLQK), for which the Binding affinity under setting [1] is given as 151 Ru.

Turning to 6mer-1-329 (RKWRQK), the Binding affinity under setting [1] stood at 123 Ru.

With 6mer-1-330 (RKVQRK), the Binding affinity under setting [1] came out at 148 Ru.

As to 6mer-1-331 (RKRITR), the Binding affinity under setting [1] was found to be 128 Ru.

With 6mer-1-332 (KKRVQK), the Binding affinity under setting [1] is recorded as 122 Ru.

For 6mer-1-333 (RKRQSR), the Binding affinity under setting [1] turned out to be 135 Ru.

As for 6mer-1-334 (RRRRLR), the Binding affinity under setting [1] is reported as 154 Ru.

Take 6mer-1-335 (RRSQRR): the Binding affinity under setting [1] amounted to 148 Ru.

Regarding 6mer-1-336 (KRVVTK), under setting [1], the Binding affinity is listed as 154 Ru.

For 6mer-1-337 (RKSRRR), the Binding affinity under setting [1] came to 144 Ru.

In the case of 6mer-1-338 (KKQVLK), the Binding affinity under setting [1] worked out at 127 Ru.

As to 6mer-1-339 (KKSIQK), under setting [1], the Binding affinity came to 147 Ru.

With 6mer-1-340 (KRLLCK), the Binding affinity under setting [1] was 142 Ru.

With 6mer-1-341 (RKQQQR), the Binding affinity under setting [1] is 128 Ru.

On to 6mer-1-342 (RKRFCR), for which the Binding affinity under setting [1] is 131 Ru.

As to 6mer-1-343 (KKLYTK), under setting [1], the Binding affinity is given as 135 Ru.

As to 6mer-1-344 (KKSQCR), the Binding affinity under setting [1] was found to be 125 Ru.

Consider 6mer-1-345 (KKLLCR), for which the Binding affinity under setting [1] was found to be 147 Ru.

As for 6mer-1-346 (KKRIYR), the Binding affinity under setting [1] was 123 Ru.

With 6mer-1-347 (KKQQSK), the Binding affinity under setting [1] came to 126 Ru.

On to 6mer-1-348 (RKQRLK), for which the Binding affinity under setting [1] was found to be 142 Ru.

As for 6mer-1-349 (KRLYSK), the Binding affinity under setting [1] amounted to 123 Ru.

Take 6mer-1-350 (KKLQTK): the Binding affinity under setting [1] is 153 Ru.

Consider 6mer-1-351 (RRGLRK), for which the Binding affinity under setting [1] is reported as 141 Ru.

With 6mer-1-352 (RKVFRK), under setting [1], the Binding affinity was 142 Ru.

Regarding 6mer-1-353 (KRLYLK), under setting [1], the Binding affinity amounted to 126 Ru.

For 6mer-1-354 (KKVFLK), the Binding affinity under setting [1] is 153 Ru.

On to 6mer-1-355 (RKVFYR), for which the Binding affinity under setting [1] came to 148 Ru.

With 6mer-1-356 (KRGYSK), under setting [1], the Binding affinity turned out to be 153 Ru.

Take 6mer-1-357 (KRRQTR): under setting [1], the Binding affinity was 148 Ru.

6mer-1-358 (KRRYTR): the Binding affinity under setting [1] is 124 Ru.

Regarding 6mer-1-359 (KRQFLR), under setting [1], the Binding affinity is recorded as 131 Ru.

On to 6mer-1-360 (KRVFLK), for which, under setting [1], the Binding affinity is reported as 148 Ru.

As for 6mer-1-361 (RKSVQR), under setting [1], the Binding affinity is given as 127 Ru.

As for 6mer-1-362 (KRVVYK), the Binding affinity under setting [1] was 133 Ru.

Turning to 6mer-1-363 (KRQIRR), under setting [1], the Binding affinity turned out to be 121 Ru.

For 6mer-1-364 (RKRQSK), the Binding affinity under setting [1] was 124 Ru.

For 6mer-1-365 (KKRICK), under setting [1], the Binding affinity is given as 142 Ru.

As to 6mer-1-366 (KRWFCR), the Binding affinity under setting [1] is reported as 133 Ru.

As to 6mer-1-367 (RKGFSK), the Binding affinity under setting [1] turned out to be 154 Ru.

As to 6mer-1-368 (RRRFSK), the Binding affinity under setting [1] was found to be 145 Ru.

For 6mer-1-369 (KKWYRK), under setting [1], the Binding affinity came out at 144 Ru.

On to 6mer-1-370 (RKQLYK), for which, under setting [1], the Binding affinity is listed as 142 Ru.

Regarding 6mer-1-371 (KRSLTR), under setting [1], the Binding affinity is 153 Ru.

Regarding 6mer-1-372 (RKLRSK), the Binding affinity under setting [1] came to 145 Ru.

Take 6mer-1-373 (KRGVLK): under setting [1], the Binding affinity was 149 Ru.

For the substance 6mer-1-374 (KKQFQK), the Binding affinity under setting [1] is on record as 148 Ru.

In the case of 6mer-1-375 (RRVFYR), under setting [1], the Binding affinity turned out to be 154 Ru.

For the substance 6mer-1-376 (RRQLRK), the Binding affinity under setting [1] turned out to be 121 Ru.

For 6mer-1-377 (KRWITR), the Binding affinity under setting [1] came out at 148 Ru.

As to 6mer-1-378 (KRSLQK), the Binding affinity under setting [1] came out at 153 Ru.

On to 6mer-1-379 (KRRISK), for which the Binding affinity under setting [1] is 153 Ru.

Regarding 6mer-1-380 (KRLQLR), the Binding affinity under setting [1] was found to be 121 Ru.

On to 6mer-1-381 (RKGFYR), for which the Binding affinity under setting [1] came out at 124 Ru.

Take 6mer-1-382 (KRQYTR): the Binding affinity under setting [1] was found to be 139 Ru.

Take 6mer-1-383 (RKRRTK): under setting [1], the Binding affinity was 148 Ru.

For 6mer-1-384 (RKVICK), the Binding affinity under setting [1] came to 148 Ru.

Consider 6mer-1-385 (KRQVLR), for which the Binding affinity under setting [1] is 127 Ru.

6mer-1-386 (RRSYQK): under setting [1], the Binding affinity worked out at 127 Ru.

6mer-1-387 (KKGRLR): the Binding affinity under setting [1] was 148 Ru.

Regarding 6mer-1-388 (RRLLQR), the Binding affinity under setting [1] is reported as 142 Ru.

On to 6mer-1-389 (RKLFCK), for which the Binding affinity under setting [1] was found to be 125 Ru.

Turning to 6mer-1-390 (RKLQQR), the Binding affinity under setting [1] stood at 121 Ru.

In the case of 6mer-1-391 (RRQRCK), the Binding affinity under setting [1] is on record as 131 Ru.

In the case of 6mer-1-392 (RRVQTR), the Binding affinity under setting [1] amounted to 135 Ru.

With 6mer-1-393 (KRLYYK), the Binding affinity under setting [1] turned out to be 148 Ru.

For the substance 6mer-1-394 (KKVRRR), the Binding affinity under setting [1] is 149 Ru.

In the case of 6mer-1-395 (KKRQTK), the Binding affinity under setting [1] came out at 125 Ru.

For the substance 6mer-1-396 (KRQIQK), the Binding affinity under setting [1] amounted to 148 Ru.

With 6mer-1-397 (KRLILR), under setting [1], the Binding affinity is 125 Ru.

In the case of 6mer-1-398 (KKQYYR), the Binding affinity under setting [1] is 137 Ru.

Take 6mer-1-399 (KRWILR): the Binding affinity under setting [1] was 125 Ru.

Take 6mer-1-400 (KRWQTK): the Binding affinity under setting [1] was found to be 123 Ru.

In the case of 6mer-1-401 (RRLYCR), the Binding affinity under setting [1] was determined as 127 Ru.

Turning to 6mer-1-402 (RRRVLR), the Binding affinity under setting [1] was determined as 153 Ru.

Take 6mer-1-403 (KRSQTK): the Binding affinity under setting [2] was 153 Ru.

For 6mer-1-404 (KKQRQK), the Binding affinity under setting [2] was 137 Ru.

For the substance 6mer-1-406 (RKVLLR), the Binding affinity under setting [2] is 153 Ru.

With 6mer-1-407 (KRLRTR), under setting [2], the Binding affinity was 153 Ru.

As to 6mer-1-408 (KRGRSR), under setting [2], the Binding affinity was determined as 147 Ru.

Consider 6mer-1-409 (RRWISR), for which, under setting [2], the Binding affinity is 144 Ru.

For 6mer-1-410 (KRVLRK), the Binding affinity under setting [2] came out at 148 Ru.

On to 6mer-1-411 (RRQRSR), for which the Binding affinity under setting [2] amounted to 121 Ru.

On to 6mer-1-412 (RKSILK), for which the Binding affinity under setting [2] is on record as 139 Ru.

6mer-1-413 (RKQFCR): the Binding affinity under setting [2] is reported as 148 Ru.

For the substance 6mer-1-414 (KRSFLR), the Binding affinity under setting [2] was 153 Ru.

With 6mer-1-415 (RRGVCR), the Binding affinity under setting [2] is given as 135 Ru.

Turning to 6mer-1-416 (RKLIYR), the Binding affinity under setting [2] came out at 153 Ru.

Take 6mer-1-417 (RKSVCK): under setting [2], the Binding affinity stood at 139 Ru.

For the substance 6mer-1-418 (RRQVRK), under setting [2], the Binding affinity turned out to be 123 Ru.

With 6mer-1-419 (KRGFYR), the Binding affinity under setting [2] is on record as 148 Ru.

For the substance 6mer-1-420 (KKGQYK), under setting [2], the Binding affinity worked out at 148 Ru.

For the substance 6mer-1-421 (RKVLYR), the Binding affinity under setting [2] came out at 135 Ru.

Consider 6mer-1-422 (KRVRQR), for which the Binding affinity under setting [2] is recorded as 154 Ru.

For the substance 6mer-1-423 (RRGYCK), under setting [2], the Binding affinity was determined as 147 Ru.

For 6mer-1-424 (RRRIYR), the Binding affinity under setting [2] is 135 Ru.

For the substance 6mer-1-425 (RKGVQK), the Binding affinity under setting [2] is given as 131 Ru.
